To fix the notation:
B1: scFv; the commonest letter at each place (parent)
chain 1: EVKLDETGGGLVQPGRPMKLSCVASGFTFSDYWMNWVRQSPEKGLEWVAQIRNKPYNYETYYSDSVKGRFTISRDDSKSSVYLQMNNLRVEDMGIYYCTGSYYGMDYWGQGTSVTVS
chain 2: DVVMTQTPLSLPVSLGDQASISCRSSQSLVHSNGNTYLRWYLQKPGQSPKVLIYKVSNRFSGVPDRFSGSGSGTDFTLKISRVEAEDLGVYFCSQSTHVPWTFGGGTKLEIK

Variants of B1 are the subject of the series “fluorescein”. Put plainly: Kd (Tite-Seq). The conditions noted are these: with fluorescein; format: scFv 4-4-20, heavy + light.
Variants of B1 are the subject of series [1]. Kind of series: yeast surface expression (ratio to wild type); higher = more expressed. The conditions noted are these: format: scFv 4-4-20, heavy + light.

58 variants from the FLAb antibody collection (doi:10.7554/elife.23156) can be followed below.

Turning to chain 1 D31A V37E, the Kd with fluorescein is ≥ 10 µM. The yeast surface expression in series [1] came to 2.19.
For chain 1 D31A V37K, the Kd in the series with fluorescein was 0.382 µM. Further, in series [1], the yeast surface expression came out at 0.623.
In the case of chain 1 D31V W33K, the dissociation constant Kd with fluorescein was ≥ 10 µM. The yeast surface expression in series [1] is 0.795.
For chain 1 D31V W33D, in the series with fluorescein, the Kd is ≥ 10 µM. Also, the yeast surface expression in series [1] worked out at 0.821.
Taken in the same sequence, the figures for chain 1 D31K Y32G were 0.0729 µM and 0.879.
chain 1 D31S M34G: the Kd with fluorescein is ≥ 10 µM. In series [1], the yeast surface expression turned out to be 0.543.
With chain 1 D31S M34R, the Kd with fluorescein is ≥ 10 µM. The yeast surface expression in series [1] was 0.424.
Taken in the same sequence, the figures for chain 1 D31S M34I were 0.004 µM and 0.757.
For chain 1 D31K W36T, in the series with fluorescein, the Kd was ≥ 10 µM. In addition, the yeast surface expression in series [1] was found to be 0.343.
As for chain 1 D31Y W33F V37H, the Kd in the series with fluorescein is ≥ 10 µM. Besides, the yeast surface expression in series [1] came to 0.788.
As to chain 1 D31Q V37P, the Kd in the series with fluorescein is 0.00827 µM. For the same variant, the yeast surface expression in series [1] is 0.0981.
Taken in the same sequence, the figures for chain 1 D31P Y32L were ≥ 10 µM and 0.86.
Regarding chain 1 D31P Y32K, in the series with fluorescein, the Kd is ≥ 10 µM. The yeast surface expression in series [1] was found to be 0.708.
As to chain 1 D31P Y32W, the Kd in the series with fluorescein is ≥ 10 µM. For the same variant, the yeast surface expression in series [1] was determined as 0.762.
Taken in the same sequence, the figures for chain 1 D106P W108M were ≥ 10 µM and 0.714.
Taken in the same sequence, the figures for chain 1 D106P W108K were ≥ 10 µM and 0.407.
In the case of chain 1 D31K W33R V37C, in the series with fluorescein, the Kd was ≥ 10 µM. Also, in series [1], the yeast surface expression was 0.501.
Taken in the same sequence, the figures for chain 1 D31S W36C were ≥ 10 µM and 0.929.
For chain 1 D31S W36P, in the series with fluorescein, the Kd is ≥ 10 µM. Moreover, the yeast surface expression in series [1] amounted to 3.88.
Taken in the same sequence, the figures for chain 1 D31S W36I were ≥ 10 µM and 0.724.
Taken in the same sequence, the figures for chain 1 D31S W36S were ≥ 10 µM and 2.03.
Taken in the same sequence, the figures for chain 1 D31Y V37Q were 0.0592 µM and 1.38.
Turning to chain 1 D106G W108E, the Kd with fluorescein is ≥ 10 µM. For the same variant, in series [1], the yeast surface expression was determined as 0.575.
Taken in the same sequence, the figures for chain 1 D31C N35Y were ≥ 10 µM and 0.763.
On to chain 1 D31P M34V, for which, in the series with fluorescein, the Kd was ≥ 10 µM. The yeast surface expression in series [1] amounted to 0.733.
Taken in the same sequence, the figures for chain 1 D31N V37I were 0.00325 µM and 0.855.
With chain 1 D31N V37H, in the series with fluorescein, the Kd stood at 0.47 µM. Moreover, the yeast surface expression in series [1] was found to be 0.626.
chain 1 D31E W33N: the Kd with fluorescein is ≥ 10 µM. Besides, the yeast surface expression in series [1] was found to be 0.845.
In the case of chain 1 D31E W33C, in the series with fluorescein, the Kd is ≥ 10 µM. For the same variant, in series [1], the yeast surface expression came to 0.827.
chain 1 D31N W36I: in the series with fluorescein, the Kd turned out to be 0.0287 µM. Moreover, the yeast surface expression in series [1] was found to be 0.679.
Taken in the same sequence, the figures for chain 1 D31N W36C were ≥ 10 µM and 0.275.
For the variant chain 1 D106M Y107C, the Kd in the series with fluorescein was ≥ 10 µM. For the same variant, the yeast surface expression in series [1] was 0.228.
Turning to chain 1 D31T Y32G, the Kd in the series with fluorescein is 0.0391 µM. Besides, the yeast surface expression in series [1] was 0.798.
For the variant chain 1 D31V M34E, the Kd in the series with fluorescein worked out at 0.676 µM. Further, the yeast surface expression in series [1] was 2.76.
Consider chain 1 D31V M34C, for which, in the series with fluorescein, the Kd was ≥ 10 µM. For the same variant, the yeast surface expression in series [1] amounted to 0.411.
On to chain 1 D31V M34R, for which, in the series with fluorescein, the Kd was found to be 0.195 µM. Moreover, the yeast surface expression in series [1] amounted to 0.17.
As for chain 1 D31M M34K, the Kd with fluorescein was ≥ 10 µM. Also, in series [1], the yeast surface expression was determined as 0.564.
Taken in the same sequence, the figures for chain 1 D31Y W36S were ≥ 10 µM and 0.638.
Taken in the same sequence, the figures for chain 1 D31P W36I were ≥ 10 µM and 0.513.
Taken in the same sequence, the figures for chain 1 D31M W36A were ≥ 10 µM and 1.72.
As for chain 1 D106M W108H, the Kd in the series with fluorescein is ≥ 10 µM. The yeast surface expression in series [1] turned out to be 0.556.
In the case of chain 1 D31Y N35I, the Kd with fluorescein was ≥ 10 µM. In addition, the yeast surface expression in series [1] worked out at 0.469.
Taken in the same sequence, the figures for chain 1 D31V N35C were ≥ 10 µM and 0.424.
Take chain 1 D31Q W36V: in the series with fluorescein, the Kd was ≥ 10 µM. Moreover, the yeast surface expression in series [1] was found to be 0.596.
Taken in the same sequence, the figures for chain 1 D31I W33D were ≥ 10 µM and 0.632.
Taken in the same sequence, the figures for chain 1 D106N Y107I G109S were 0.136 µM and 0.679.
Taken in the same sequence, the figures for chain 1 D31H N35A W36R were ≥ 10 µM and 2.27.
Regarding chain 1 D31V V37E, the Kd in the series with fluorescein was found to be 0.205 µM. In addition, the yeast surface expression in series [1] was 0.807.
Taken in the same sequence, the figures for chain 1 D31E Y32M were 8.13 µM and 0.789.
Taken in the same sequence, the figures for chain 1 D31E Y32P were ≥ 10 µM and 0.77.
With chain 1 D31C V37K, the Kd in the series with fluorescein is ≥ 10 µM. Moreover, the yeast surface expression in series [1] was found to be 0.453.
Taken in the same sequence, the figures for chain 1 D31Q Y32R V37Q were ≥ 10 µM and 0.133.
Taken in the same sequence, the figures for chain 1 D31G N35A were ≥ 10 µM and 0.664.
Taken in the same sequence, the figures for chain 1 D31G N35Q were ≥ 10 µM and 0.746.
Consider chain 1 D31G N35H, for which the Kd with fluorescein is ≥ 10 µM. The yeast surface expression in series [1] was 0.64.
Taken in the same sequence, the figures for chain 1 D31H Y32F were 0.00194 µM and 0.801.
Taken in the same sequence, the figures for chain 1 D31H Y32S were 8.56 µM and 0.802.
On to chain 1 D31R W36N, for which the Kd in the series with fluorescein is ≥ 10 µM. The yeast surface expression in series [1] worked out at 1.06.

As a reminder, the Kd is the equilibrium constant for the complex coming apart.
